Two substances from patent US8226943B2, “Antibodies to notch receptors” (OncoMed Pharmaceuticals, Inc., priority 2008, dated 2012) can be followed below.

By Kd is commonly meant the equilibrium constant for the complex coming apart.

Like-named read-outs stand apart in the source and are kept apart here. Bounds are passed on as bounds.

One experiment deals with T1, mNotch1 (Mus musculus, UniProt Q01705).
T1 construct: recombinant human and mouse Notch proteins (EGF10-15 for Notch1, 2, & 4; EGF9-14 for Notch3) were immobilized on a CM5 chip
T1 sequence (Q01705 372-601 limits assumed): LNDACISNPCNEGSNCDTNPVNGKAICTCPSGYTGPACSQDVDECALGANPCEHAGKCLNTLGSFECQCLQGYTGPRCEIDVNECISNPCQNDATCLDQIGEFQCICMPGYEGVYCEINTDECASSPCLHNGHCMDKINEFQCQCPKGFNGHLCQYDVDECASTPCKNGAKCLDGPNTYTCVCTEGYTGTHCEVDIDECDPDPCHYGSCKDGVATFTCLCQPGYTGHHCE
Nature of the experiment: Biacore affinity, mouse Notch1. It is filed as binding. As to the method:
(§1) The affinities for human and mouse Notch1, Notch2, Notch3, and Notch4 were determined using a Biacore 2000 instrument. Briefly, recombinant human and mouse Notch proteins (EGF10-15 for Notch1, 2, & 4; EGF9-14 for Notch3) were immobilized on a CM5 chip using standard amine based chemistry (NHS/EDC). For hNotch2, EGF1-12 was also tested for binding. Different antibody concentrations (1-100 nM) were injected over the protein surfaces and kinetic data were collected over time. The data was fit using the simultaneous global fit equation to yield dissociation constants (KD, nM) for each Notch (Table 3).
(§2) The sequences of the heavy chain and light chain are provided in SEQ ID NO: 49 and SEQ ID NO:18, respectively. The heavy chain variable region is provided in SEQ ID NO:50 and the light chain variable region is provide SEQ ID NO:13. The heavy chain CDR3 sequence of 59R5 comprises SIFYTT, SEQ ID NO:51. The other CDR sequences of 59R5 are identical to 59R1. […] Both antibodies bind human and murine Notch2 and Notch3 receptors with sub-nanomolar affinity (see Table 6).
In general terms: Surface plasmon resonance follows binding to a sensor surface in real time, without labels.

For another experiment, the target named is T2, hNotch1 (Homo sapiens, UniProt P46531).
T2 construct: recombinant human and mouse Notch proteins (EGF10-15 for Notch1, 2, & 4; EGF9-14 for Notch3) were immobilized on a CM5 chip
T2 sequence (P46531 372-601 limits assumed): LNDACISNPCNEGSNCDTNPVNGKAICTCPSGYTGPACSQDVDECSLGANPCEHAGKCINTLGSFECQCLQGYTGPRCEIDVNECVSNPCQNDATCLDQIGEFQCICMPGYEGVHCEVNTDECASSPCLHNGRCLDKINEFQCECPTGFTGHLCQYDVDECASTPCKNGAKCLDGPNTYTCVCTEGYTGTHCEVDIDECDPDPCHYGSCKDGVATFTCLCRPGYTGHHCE
Description: Biacore affinity, human Notch1. It is filed as binding. The conditions noted are these: Table 6, Biacore; read-out: IgG Dissociation Constant (KD) h-Notch1. As to the method:
as §1, §2

Another experiment deals with human Notch2 (Homo sapiens, UniProt Q04721). Description: FACS binding to transiently transfected HEK-293 cells, human Notch2. Further details: expressed in transfected cells; host or cells: HEK-293, stably transfected. The procedure: The ability of the 59R1 IgG2 antibody to cross-react with other Notch receptors was determined by FACS assay using HEK-293 cells transiently transfected with the human Notch1, Notch2, Notch3 or Notch4 expression plasmid and green fluorescent protein (GFP) as a transfection control. GFP positive cells indicated expression of the transgene. The 59R1 IgG2 was added to the cells at 2 μg/ml and detected by PE-conjugated goat anti-human Fc gamma specific (Jackson Immunochemicals). All Notch constructs were full length.
Chain of human Notch2 (Q04721 26-2471): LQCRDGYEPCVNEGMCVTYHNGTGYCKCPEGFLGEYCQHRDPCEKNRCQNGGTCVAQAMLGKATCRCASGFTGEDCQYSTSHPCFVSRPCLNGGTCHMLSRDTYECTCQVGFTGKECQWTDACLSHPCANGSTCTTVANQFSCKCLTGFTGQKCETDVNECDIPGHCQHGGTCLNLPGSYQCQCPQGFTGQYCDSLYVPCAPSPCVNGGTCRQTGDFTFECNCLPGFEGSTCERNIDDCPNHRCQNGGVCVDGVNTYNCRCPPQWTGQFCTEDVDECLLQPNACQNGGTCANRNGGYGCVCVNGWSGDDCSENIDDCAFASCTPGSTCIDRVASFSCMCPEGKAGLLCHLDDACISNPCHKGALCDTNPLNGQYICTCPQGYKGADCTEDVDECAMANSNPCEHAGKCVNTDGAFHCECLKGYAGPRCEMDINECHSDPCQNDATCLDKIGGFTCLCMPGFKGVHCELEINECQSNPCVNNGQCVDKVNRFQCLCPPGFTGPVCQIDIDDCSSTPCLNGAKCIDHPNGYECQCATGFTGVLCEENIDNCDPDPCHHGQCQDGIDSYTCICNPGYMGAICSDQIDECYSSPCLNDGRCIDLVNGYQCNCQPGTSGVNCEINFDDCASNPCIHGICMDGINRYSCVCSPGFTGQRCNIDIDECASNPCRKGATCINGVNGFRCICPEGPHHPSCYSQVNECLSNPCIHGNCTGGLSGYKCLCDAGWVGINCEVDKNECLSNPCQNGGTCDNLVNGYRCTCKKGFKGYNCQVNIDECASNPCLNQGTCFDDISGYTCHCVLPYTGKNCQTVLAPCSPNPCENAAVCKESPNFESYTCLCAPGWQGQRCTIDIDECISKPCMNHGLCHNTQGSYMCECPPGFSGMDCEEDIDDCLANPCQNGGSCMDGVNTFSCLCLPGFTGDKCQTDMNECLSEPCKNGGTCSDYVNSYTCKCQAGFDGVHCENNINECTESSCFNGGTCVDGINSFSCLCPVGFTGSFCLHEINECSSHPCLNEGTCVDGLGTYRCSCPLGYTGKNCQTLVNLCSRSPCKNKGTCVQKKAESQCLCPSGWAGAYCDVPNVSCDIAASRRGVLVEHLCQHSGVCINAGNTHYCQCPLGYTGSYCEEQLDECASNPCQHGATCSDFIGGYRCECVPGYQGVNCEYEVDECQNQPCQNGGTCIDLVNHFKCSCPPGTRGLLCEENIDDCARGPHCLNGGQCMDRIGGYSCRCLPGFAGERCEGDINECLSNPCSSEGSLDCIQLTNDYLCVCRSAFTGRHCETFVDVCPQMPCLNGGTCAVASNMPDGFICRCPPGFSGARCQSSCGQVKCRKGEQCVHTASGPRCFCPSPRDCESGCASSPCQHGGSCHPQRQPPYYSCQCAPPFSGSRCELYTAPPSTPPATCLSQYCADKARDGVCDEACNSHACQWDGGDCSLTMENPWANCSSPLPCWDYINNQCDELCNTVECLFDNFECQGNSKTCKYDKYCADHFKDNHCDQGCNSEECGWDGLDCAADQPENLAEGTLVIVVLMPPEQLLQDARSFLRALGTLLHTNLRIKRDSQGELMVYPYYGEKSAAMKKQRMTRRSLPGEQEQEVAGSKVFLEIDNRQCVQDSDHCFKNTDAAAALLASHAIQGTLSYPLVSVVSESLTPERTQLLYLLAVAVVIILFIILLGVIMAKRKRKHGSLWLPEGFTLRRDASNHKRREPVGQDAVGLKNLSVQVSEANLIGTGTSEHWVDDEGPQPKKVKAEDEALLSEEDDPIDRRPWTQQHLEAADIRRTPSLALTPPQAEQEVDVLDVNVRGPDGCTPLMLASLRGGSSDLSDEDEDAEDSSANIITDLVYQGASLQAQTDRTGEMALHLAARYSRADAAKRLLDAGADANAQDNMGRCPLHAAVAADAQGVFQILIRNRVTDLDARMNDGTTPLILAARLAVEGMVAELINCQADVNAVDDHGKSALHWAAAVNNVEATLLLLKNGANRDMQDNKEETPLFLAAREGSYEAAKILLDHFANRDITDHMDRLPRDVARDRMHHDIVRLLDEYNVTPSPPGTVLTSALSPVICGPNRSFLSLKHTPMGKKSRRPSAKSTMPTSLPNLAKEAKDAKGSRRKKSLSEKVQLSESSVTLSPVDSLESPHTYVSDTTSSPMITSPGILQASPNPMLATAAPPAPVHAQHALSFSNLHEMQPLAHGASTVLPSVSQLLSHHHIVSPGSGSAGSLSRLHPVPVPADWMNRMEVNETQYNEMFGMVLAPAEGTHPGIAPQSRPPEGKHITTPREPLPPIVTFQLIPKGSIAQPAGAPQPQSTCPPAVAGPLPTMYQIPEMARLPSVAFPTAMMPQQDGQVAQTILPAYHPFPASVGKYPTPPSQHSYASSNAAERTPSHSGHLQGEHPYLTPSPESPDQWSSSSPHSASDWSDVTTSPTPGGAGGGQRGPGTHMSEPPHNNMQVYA
The binding epitope of 59R5 was determined. As was described in Example 3 for analysis of antibody 59R1, several point mutants were created within full-length Notch1, converting residues within EGF10 to the corresponding amino acids in human Notch 2. Mutants in full-length Notch sequences were generated by QuikChange® mutagenesis (Stratagene) and verified by sequencing. HEK 293 cells were transiently transfected with expression vectors encoding human Notch2, human Notch1, or human Notch1 with residues 382-386 mutated to the corresponding human Notch2 residues. Cells were also co-transfected with a plasmid encoding green fluorescent protein (GFP) to mark those cells that received transfected plasmid. […] 59R1 and 59R5 were detected by PE-conjugated goat anti-human Fc gamma specific antibody (Jackson Immunochemicals, #109-116-170). […]
For orientation: Flow cytometry measures light scatter and fluorescence of single cells or particles in a stream.

[1] abbreviates: Table 6, Biacore, read-out: IgG Dissociation Constant (KD) m-Notch1.

As to “59R1: human IgG2 antibody binding Notch2 and Notch3; heavy and light chain SEQ ID NO:16 and 18; ATCC PTA-9547”, the Kd with mNotch1 (Table 3, Biacore, EGF10-15, read-out: Dissociation Constant (KD) mNotch1) was greater than 0.01 µM; in the experiment with mNotch1 (setting [1]), greater than 0.01 µM; with hNotch1, greater than 0.01 µM. Moreover, in the experiment with human Notch2, the “binding to full-length human Notch2 (FACS)” value is recorded as “specifically binds”.
Take “59R5: human antibody that specifically binds human Notch 2 and human Notch 3; heavy and light chain SEQ ID NO:49 and 18; ATCC PTA-10170”: the Kd with mNotch1 (setting [1]) and with hNotch1 was greater than 0.01 µM in each case. Besides, the “binding to full-length human Notch2 (FACS)” value in the experiment with human Notch2 was “bound”.
